Laboratory results reported in paper PMC4381330, “Identification of a novel selective agonist of PPARγ with no promotion of adipogenesis and less inhibition of osteoblastogenesis” (Scientific Reports, 2015).
No end group written: not given here.

Tests used:
[1] = target: T1, GST-fused human PPARγ-LBD (human); assay: AlphaScreen or HTRF; LanthaScreen TR-FRET coregulator peptide assay; serial concentrations of rosiglitazone with GST-PPARγ-LBD, terbium-labeled anti-GST antibody and fluorescein-labeled peptide, 4 h; 520 nm/495 nm ratio; settings: both partners purified
T1 construct: Kit protein, detected through a terbium-labeled anti-GST antibody

[2] = target: T1, GST-fused human PPARγ-LBD; assay: AlphaScreen or HTRF; LanthaScreen TR-FRET coregulator peptide assay; serial concentrations of F12016 with GST-PPARγ-LBD, terbium-labeled anti-GST antibody and fluorescein-labeled peptide, 4 h; coactivator data as percent of the maximum of rosiglitazone; settings: both partners purified

T1 sequence (P37231 whole entry, the tested form may be a part): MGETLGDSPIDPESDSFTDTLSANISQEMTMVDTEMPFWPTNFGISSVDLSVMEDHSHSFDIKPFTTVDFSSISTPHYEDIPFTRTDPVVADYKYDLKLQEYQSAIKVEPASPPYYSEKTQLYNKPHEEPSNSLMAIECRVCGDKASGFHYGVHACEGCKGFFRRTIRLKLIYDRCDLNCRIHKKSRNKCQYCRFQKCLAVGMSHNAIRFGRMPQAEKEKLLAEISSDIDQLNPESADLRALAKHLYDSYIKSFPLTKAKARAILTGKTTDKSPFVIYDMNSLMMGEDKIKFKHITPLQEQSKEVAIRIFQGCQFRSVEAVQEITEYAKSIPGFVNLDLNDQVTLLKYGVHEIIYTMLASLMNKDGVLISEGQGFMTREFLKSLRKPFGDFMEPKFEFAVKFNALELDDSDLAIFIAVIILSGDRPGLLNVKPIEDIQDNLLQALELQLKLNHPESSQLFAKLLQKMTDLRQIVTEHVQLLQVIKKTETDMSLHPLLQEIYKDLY

Row | Binder | efficacy (maximum recruitment, % of rosiglitazone), with rosiglitazone [1] [%] | efficacy (maximum recruitment, % of rosiglitazone), with F12016 [2] [%]
1 | NTKNHPMLMNLLKDNPAQD (also: fluorescein label, position not given here) | 100 | 17
2 | VTLTSPLLVNLLQSDISAG (also: fluorescein label, position not given here) [nuclear receptor coactivator 250 (RAP250) peptide, fluorescein-labeled] | 100 | 25
3 | EAEEPSLLKKLLLAPANTQ (also: fluorescein label, position not given here) [PPARγ coactivator 1α (PGC-1α) peptide, fluorescein-labeled] | 100 | 57
